# Patent EP4600270A1 (ImnoTech GmbH, dated 2025)
# T1: human CD7 (cluster of differentiation 7) (human, UniProt P09564 26-240)
# T1 construct: also called CD7 target antigen; CD7 surface marker
# T1 sequence: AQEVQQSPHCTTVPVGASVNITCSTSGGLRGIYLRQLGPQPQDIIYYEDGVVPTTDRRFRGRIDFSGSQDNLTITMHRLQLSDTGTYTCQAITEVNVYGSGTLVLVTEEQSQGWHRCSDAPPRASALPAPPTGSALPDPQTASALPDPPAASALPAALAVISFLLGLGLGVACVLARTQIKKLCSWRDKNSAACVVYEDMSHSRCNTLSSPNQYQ
# Molecular target: T1, human CD7 (cluster of differentiation 7)
# Assay: flow cytometry titration on human CD8+ T cells, one-site specific binding fit
row,Binder,Kd [nM]
1,"SEQ ID NO 4 (VHH, Single domain antibody against human CD7; also called anti-CD7 sdAb) VHH: QVQLQESGGGLVQAGDSLRLSCAASGLTVSSYGMGWFRQAPGKEREFVVDISRGGGSTSYADSVKGRFTIARDNAKNTLYLQMNSLKPEDTAVYSCAARKYAHYEYWGQGTQVTVSS",5.66
2,"SEQ ID NO 7 (VHH, Single domain antibody against human CD7; also called anti-CD7 sdAb) VHH: QVQLQESGGGLVQAGDSLRLSCAASGLTVSMYGMGWFRQAPGKEREFVADISRGGGSTSYTDSVKGRFTISRDNAKNTLYLQMNSLKPEDTAVYSCAARKYAHYEYRGQGTQVTVSS",11
3,"SEQ ID NO 2 (VHH, Single domain antibody against human CD7; also called anti-CD7 sdAb) VHH: QVQLQESGGGLVQAGGSLRLSCAASGRTFSDYLMGWFRQTPGKEREFVAAIYWNAGSTYYADSVKGRFTISRDNTKNTMYLQMNSLKPEDTAVYYCAAGQRGLAYARTYDYDYWGQGTQVTVSS",6.34

# Second part, the binder after the results:
row,Kd [nM],Binder
1,8.16,"SEQ ID NO 8 (VHH, Single domain antibody against human CD7; also called anti-CD7 sdAb) VHH: QVQLQESGGGLVQTGDSLRLSCAASGLTVSSYGMGWFRQAPGKEREFVADISRGGGSTLYADSVKGRFTISRDNLKNTLYLQMNSLKPEDTAVYSCAARKYAEWNYWGQGTQVTVSS"
2,4.04,"SEQ ID NO 9 (VHH, Single domain antibody against human CD7; also called anti-CD7 sdAb) VHH: QVQLQESGGGLVQAGDSLRLSCAASGLTVSSYGMGWFRQAPGKEREFVADISRGGGSTLYADSVKGRFTISRDNGKNTLYLQINSLKPEDTAVYSCAARKYAEWDYWGQGTQVTVSS"
3,3.9,"SEQ ID NO 13 (VHH, Single domain antibody against human CD7; also called anti-CD7 sdAb) VHH: QVQLQESGGGLVQSGGSLRLSCAASRRIFEINVMGWYRQAPEKQRELVGTITSFGGTNYADSVKGRFTISADYAKNTMYLQMNSLNPEDTAVYYCNAHYFSNDYWGQGTQVTVSS"
